Bridge positions count the residues as written; N and C are the ends. Square brackets hold non-standard residues; d marks the D form. Ends that are not written are not given here. Nle = CCCC[C@H](N)C(=O)O; Orn = NCCC[C@H](N)C(=O)O; PEG = not defined here; Aib = CC(C)(N)C(=O)O
B1: NLeu3, E16 Gluc-NH2 (peptide)
peptide: HS[Nle]GTFTSDYSKYLDERRAQDFVQWLMNT-NH2
B2: Orn3, E16 Gluc-NH2 (peptide)
peptide: HS[Orn]GTFTSDYSKYLDERRAQDFVQWLMNT-NH2
B3: -MKGG30 PSSGAPPPS (SEQ ID NO: 523) (peptide)
peptide: HSQGTFTSDYSKYLDSRRAQDFVQWLMKGGPSSGAPPPS-NH2
B4: -VKGG30 PSSGAPPPS (SEQ ID NO: 524) (peptide)
peptide: HSQGTFTSDYSKYLDSRRAQDFVQWLVKGGPSSGAPPPS-NH2
B5: -MDGG30 PSSGAPPPS (SEQ ID NO: 525) (peptide)
peptide: HSQGTFTSDYSKYLDSRRAQDFVQWLMDGGPSSGAPPPS-NH2
B6: E16K20-MDGG30 PSSGAPPPS (SEQ ID NO: 526) (peptide)
peptide: HSQGTFTSDYSKYLDERRAKDFVQWLMDGGPSSGAPPPS-NH2
B7: -MNGG30 PSSGAPPPS (SEQ ID NO: 522) (peptide)
peptide: HSQGTFTSDYSKYLDSRRAQDFVQWLMNGGPSSGAPPPS-NH2
B8: GLP-1-VKGG30 (SEQ ID NO: 527) (peptide)
peptide: HAEGTFTSDVSSYLEGQAAKEFIAWLVKGG-NH2
B9: Glucagon-Cex (peptide)
peptide: HSQGTFTSDYSKYLDSRRAQDFVQWLMNTGPSSGAPPPS
modifications: C-terminal amide
B10: E15, E16 Gluc-NH2 (peptide)
peptide: HSQGTFTSDYSKYLEERRAQDFVQWLMNT-NH2
B11: Chimera AIB2, Cys24 (SEQ ID NO: 486), parent w/o PEG (peptide)
peptide: H[Aib]QGTFTSDYSKYLDEQAAKEFICWLMNT-NH2
B12: Chimera AIB2, Cys24 (SEQ ID NO: 486), parent w/PEG (peptide)
peptide: H[Aib]QGTFTSDYSKYLDEQAAKEFIC(PEG)WLMNT-NH2
modifications: not fully specified; reading uncertain
B13: Chimera AIB2, Cys24 Lactam (SEQ ID NO: 504), parent w/PEG (peptide)
peptide: H[Aib]QGTFTSDYSKYLDEQAAKEFIC(PEG)WLMNT-NH2
modifications: lactam 16-20; not fully specified; reading uncertain
B14: Chimera AIB2, Cys24 Lactam (SEQ ID NO: 504), parent w/o PEG (peptide)
peptide: H[Aib]QGTFTSDYSKYLDEQAAKEFICWLMNT-NH2
modifications: lactam 16-20

What follows are binders tested against T1, GLP-1 receptor (UniProt P43220 24-463, limits assumed) (assay: cell-based or functional assay).

cAMP Induction, Percent Potency Relative to Native Ligand [%]	Binder
20.6	B1
0.1	B2

Target: T1, GLP-1 receptor
Assay: cell-based or functional assay
Remark: another data set of the same source

EC50 [nM]	Binder
0.8	B3
0.21	B4
0.13	B5
0.02	B6
0.31	B7
0.025	B8

These binders were tested against T2, glucagon receptor (UniProt P47871 26-477, limits assumed) (assay: cell-based or functional assay).
T2 sequence (P47871 26-477 limits assumed): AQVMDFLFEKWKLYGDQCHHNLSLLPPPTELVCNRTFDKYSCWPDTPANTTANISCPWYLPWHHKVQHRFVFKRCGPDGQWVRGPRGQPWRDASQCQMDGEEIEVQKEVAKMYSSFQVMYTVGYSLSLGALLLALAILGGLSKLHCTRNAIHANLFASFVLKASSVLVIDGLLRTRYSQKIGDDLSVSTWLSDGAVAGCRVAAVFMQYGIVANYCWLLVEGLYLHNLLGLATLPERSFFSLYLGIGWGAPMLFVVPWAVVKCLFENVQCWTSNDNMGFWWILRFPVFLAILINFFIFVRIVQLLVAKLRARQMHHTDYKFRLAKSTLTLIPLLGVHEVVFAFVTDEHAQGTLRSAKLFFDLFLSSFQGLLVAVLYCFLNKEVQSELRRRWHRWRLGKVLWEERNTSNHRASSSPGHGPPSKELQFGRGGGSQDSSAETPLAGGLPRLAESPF

EC50 [nM]	Binder
0.61	B3
1.16	B4
0.12	B5
0.14	B9

Target: T1, GLP-1 receptor
Assay: cell-based or functional assay
Remark: another data set of the same source

cAMP Induction, Percent Potency Relative to Native Ligand [%]	Binder
9.2	B10

Target: T1, GLP-1 receptor
Assay: cell-based or functional assay
Remark: another data set of the same source

% Potency Relative to Native [%]	Binder
161	B11
82.5	B12
38	B13
230	B14

Target: T2, glucagon receptor
Assay: cell-based or functional assay
Remark: another data set of the same source

% Potency Relative to Native [%]	Binder
15.4	B11
2.6	B12
9.2	B13
114	B14

— patent publication US20100190701A1 (INDIANA UNIVERSITY RESEARCH AND TECHNOLOGY, published 2010)
